Patent US20130281314A1 (Genentech, published 2013)

Biological target: T1, Wildtype ubiquitin (human, UniProt P0CG48 1-76)
T1 construct: also called wt; not shown: N-terminal 6xHis tag of the pET derivative vector
Test: biolayer interferometry, USP14catC114A on sensors, steady state fit

B1: USP14catC114A (enzyme, UniProt P54578 91-494, looked up)
chain: DMTEEQLASAMELPCGLTNLGNTAYMNATVQCIRSVPELKDALKRYAGALRASGEMASAQYITAALRDLFDSMDKTSSSIPPIILLQFLHMAFPQFAEKGEQGQYLQQDANECWIQMMRVLQQKLEAIEDDSVKETDSSSASAATPSKKKSLIDQFFGVEFETTMKCTESEEEEVTKGKENQLQLSCFINQEVKYLFTGLKLRLQEEITKQSPTLQRNALYIKSSKISRLPAYLTIQMVRFFYKEKESVNAKVLKDVKFPLMLDMYELCTPELQEKMVSFRSKFKDLEDKKVNQQPNTSDKKSSPQKEVKYEPFSFADDIGSNNCGYYDLQAVLTHQGRSSSSGHYVSWVKRKQDEWIKFDDDKVSIVTPEDILRLSGGGDWHIAYVLLYGPRRVEIMEEESEQ
modifications: monobiotinylated at the C-terminal Avi tag
notes: range 91-494; N-terminal His tag removed with TEV protease; also called catalytic domain of USP14 (residues D91-Q494) with a C114A mutation; not shown: C-terminal Avi tag
For B1, the Kd was 100 µM.
